Molecular target: SARS-CoV-2 wild-type spike protein (on pseudovirus) (SARS-CoV-2, UniProt P0DTC2 14-1273)
Assay: cell-based or functional assay

| Binder | 假病毒中和试验 IC50 |
| --- | --- |
| VacW-209 (antibody, V domains shown) VH: QVQLVESGGGVVQPGRSLRLSCAASGFTFSSIAMHWVRQAPGKGLEWVAVMSFDGSIKYYGDSVKGRFTISRDNSKSTLYLQMNSLRAEDTAVYYCARGVQGYYDRSGYYNLDYNYGMDVWGQGTTVTVSS VL: QSVLTQPPSVSGAPGQRVTISCTGSSSNIGAGYDVHWYQQLPGTAPKLLIYGNSNRPSGVPDRFSGSKSGTSASLAITGLQAEDEADYYCQSYDSSLSGWVFGGGTKLTVL | 0.03 µg/mL |

Molecular target: T1, SARS-CoV-2 wild-type RBD protein (SARS-CoV-2, UniProt P0DTC2 319-541)
T1 construct: domain: RBD
Assay: SPR, Biacore 8K, RBD on CM5 chip, IgG injected, 1:1 model

| Binder | Kd |
| --- | --- |
| VacW-201 (antibody, V domains shown) VH: EVQLVESGGGLVQPGGSLRLSCAASGFTFSSYWMNWVRQAPGKGLEWVANIKQDGSEKYYVDSVKGRFTISRDNAKNSLYLQMNSLRAEDTAVYYCARMEYPYGGVDYWGQGTLVTVSS VL: NFMLTQPHSVSESPGKTVTISCTGSSGSIASNYVQWYQQRPGSAPTTVIYEDNQRPSGVPDRFSGSIDSSSNSASLTISGLKTEDEADYYCQSYDSSNRNWVFGGGTKLTVL | 0.88 nM |
| VacW-215 (antibody, V domains shown) VH: EVQLVESGGGLIQPGGSLRLSCAASGFTVSSNYMSWVRQAPGKGLEWVSVIYSGGSTYYADSVKGRFTISRDNSKNTLYLQMNSLRAEDTAVYYCARSTWLRGGFDYWGQGTLVTVSS VL: NFMLTQPHSVSESPGKTVTISCTGSSGSIASNYVQWYQQRPGSAPTTVIYEDNQRPSGVPDRFSGSIDSSSNSASLTISGLKTEDEADYYCQSYDSSNHFYVFGTGTKVTVL | 0.405 nM |
| VacW-212 (antibody, V domains shown) VH: EVQLVESGGGLVQPGGSLRLSCAASGFTFSSYWMNWVRQAPGKGLEWVANIKQDESEKYYVDSVKGRFTISRDNAKNSLFLQMNSLRVEDTAVYYCARMEYPYGGIDYWGQGTLVTVSA VL: NFMLTQPHSVSESPGKTVTISCTGSSGSIASNYVQWYQQRPGSAPTTVIYEDNQRPSGVPDRFSGSIDSSSNSASLTISGLKTEDEADYYCQSYDSSNRNWVFGGGTKLTVL | 0.653 nM |
| VacW-209 (antibody, V domains shown) VH: QVQLVESGGGVVQPGRSLRLSCAASGFTFSSIAMHWVRQAPGKGLEWVAVMSFDGSIKYYGDSVKGRFTISRDNSKSTLYLQMNSLRAEDTAVYYCARGVQGYYDRSGYYNLDYNYGMDVWGQGTTVTVSS VL: QSVLTQPPSVSGAPGQRVTISCTGSSSNIGAGYDVHWYQQLPGTAPKLLIYGNSNRPSGVPDRFSGSKSGTSASLAITGLQAEDEADYYCQSYDSSLSGWVFGGGTKLTVL | 0.0113 nM |
| VacW-138 (antibody, V domains shown) VH: not shown VL: AIQLTQSPFSLSASVGDRVTITCRASQGISSALAWYQQKPGKAPKLLIYDASSLESGVPSRFSGSGSGTDFTLTISSLQPEDFATYFCQQVDTYQFTFGPGTKVDIK | 1.1 nM |
| VacW-105 (antibody, V domains shown) VH: QVQLVQSGAEVKKPGSSVKVSCKASGGTFRSYTISWVRQAPGQGLEWMGRILPILGIANYAQKFQGRVTITADKSTSTAYMELSSLRSEDTAVYYCARVTGAPVESAAWFDPWGQGTLVTVSS VL: not shown | 1.64 nM |
